Data as given in patent publication US20040259781A1 (Novartis, published 2004).
Each block holds one molecule with its values, some of them ahead of it.

Experiments:
[1] = target: Fibronectin (purified from horse serum) (horse) (UniProt Q28377); assay: cell-based or functional assay
[2] = target: T1, Syndecan-1 overexpressed on T98G glioblastoma cells (mouse, UniProt P18828 23-311); assay: GST pull-down of cell surface-bound FNIII13 and western blot, immunofluorescence
T1 construct: whole, on cells; also called T98G:S1
T1 sequence (looked up): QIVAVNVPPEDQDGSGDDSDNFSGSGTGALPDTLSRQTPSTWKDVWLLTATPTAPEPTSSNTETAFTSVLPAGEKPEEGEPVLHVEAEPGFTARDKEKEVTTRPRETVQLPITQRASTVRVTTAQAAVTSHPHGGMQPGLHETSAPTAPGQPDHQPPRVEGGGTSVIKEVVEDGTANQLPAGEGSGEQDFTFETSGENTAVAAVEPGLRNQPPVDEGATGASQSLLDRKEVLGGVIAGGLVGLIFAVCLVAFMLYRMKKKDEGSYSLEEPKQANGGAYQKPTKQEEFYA

[3] = scale: relative increase in cpm over cells plated on fibronectin

Sequence of Fibronectin (purified from horse serum) (horse) (Q28377 32-2477): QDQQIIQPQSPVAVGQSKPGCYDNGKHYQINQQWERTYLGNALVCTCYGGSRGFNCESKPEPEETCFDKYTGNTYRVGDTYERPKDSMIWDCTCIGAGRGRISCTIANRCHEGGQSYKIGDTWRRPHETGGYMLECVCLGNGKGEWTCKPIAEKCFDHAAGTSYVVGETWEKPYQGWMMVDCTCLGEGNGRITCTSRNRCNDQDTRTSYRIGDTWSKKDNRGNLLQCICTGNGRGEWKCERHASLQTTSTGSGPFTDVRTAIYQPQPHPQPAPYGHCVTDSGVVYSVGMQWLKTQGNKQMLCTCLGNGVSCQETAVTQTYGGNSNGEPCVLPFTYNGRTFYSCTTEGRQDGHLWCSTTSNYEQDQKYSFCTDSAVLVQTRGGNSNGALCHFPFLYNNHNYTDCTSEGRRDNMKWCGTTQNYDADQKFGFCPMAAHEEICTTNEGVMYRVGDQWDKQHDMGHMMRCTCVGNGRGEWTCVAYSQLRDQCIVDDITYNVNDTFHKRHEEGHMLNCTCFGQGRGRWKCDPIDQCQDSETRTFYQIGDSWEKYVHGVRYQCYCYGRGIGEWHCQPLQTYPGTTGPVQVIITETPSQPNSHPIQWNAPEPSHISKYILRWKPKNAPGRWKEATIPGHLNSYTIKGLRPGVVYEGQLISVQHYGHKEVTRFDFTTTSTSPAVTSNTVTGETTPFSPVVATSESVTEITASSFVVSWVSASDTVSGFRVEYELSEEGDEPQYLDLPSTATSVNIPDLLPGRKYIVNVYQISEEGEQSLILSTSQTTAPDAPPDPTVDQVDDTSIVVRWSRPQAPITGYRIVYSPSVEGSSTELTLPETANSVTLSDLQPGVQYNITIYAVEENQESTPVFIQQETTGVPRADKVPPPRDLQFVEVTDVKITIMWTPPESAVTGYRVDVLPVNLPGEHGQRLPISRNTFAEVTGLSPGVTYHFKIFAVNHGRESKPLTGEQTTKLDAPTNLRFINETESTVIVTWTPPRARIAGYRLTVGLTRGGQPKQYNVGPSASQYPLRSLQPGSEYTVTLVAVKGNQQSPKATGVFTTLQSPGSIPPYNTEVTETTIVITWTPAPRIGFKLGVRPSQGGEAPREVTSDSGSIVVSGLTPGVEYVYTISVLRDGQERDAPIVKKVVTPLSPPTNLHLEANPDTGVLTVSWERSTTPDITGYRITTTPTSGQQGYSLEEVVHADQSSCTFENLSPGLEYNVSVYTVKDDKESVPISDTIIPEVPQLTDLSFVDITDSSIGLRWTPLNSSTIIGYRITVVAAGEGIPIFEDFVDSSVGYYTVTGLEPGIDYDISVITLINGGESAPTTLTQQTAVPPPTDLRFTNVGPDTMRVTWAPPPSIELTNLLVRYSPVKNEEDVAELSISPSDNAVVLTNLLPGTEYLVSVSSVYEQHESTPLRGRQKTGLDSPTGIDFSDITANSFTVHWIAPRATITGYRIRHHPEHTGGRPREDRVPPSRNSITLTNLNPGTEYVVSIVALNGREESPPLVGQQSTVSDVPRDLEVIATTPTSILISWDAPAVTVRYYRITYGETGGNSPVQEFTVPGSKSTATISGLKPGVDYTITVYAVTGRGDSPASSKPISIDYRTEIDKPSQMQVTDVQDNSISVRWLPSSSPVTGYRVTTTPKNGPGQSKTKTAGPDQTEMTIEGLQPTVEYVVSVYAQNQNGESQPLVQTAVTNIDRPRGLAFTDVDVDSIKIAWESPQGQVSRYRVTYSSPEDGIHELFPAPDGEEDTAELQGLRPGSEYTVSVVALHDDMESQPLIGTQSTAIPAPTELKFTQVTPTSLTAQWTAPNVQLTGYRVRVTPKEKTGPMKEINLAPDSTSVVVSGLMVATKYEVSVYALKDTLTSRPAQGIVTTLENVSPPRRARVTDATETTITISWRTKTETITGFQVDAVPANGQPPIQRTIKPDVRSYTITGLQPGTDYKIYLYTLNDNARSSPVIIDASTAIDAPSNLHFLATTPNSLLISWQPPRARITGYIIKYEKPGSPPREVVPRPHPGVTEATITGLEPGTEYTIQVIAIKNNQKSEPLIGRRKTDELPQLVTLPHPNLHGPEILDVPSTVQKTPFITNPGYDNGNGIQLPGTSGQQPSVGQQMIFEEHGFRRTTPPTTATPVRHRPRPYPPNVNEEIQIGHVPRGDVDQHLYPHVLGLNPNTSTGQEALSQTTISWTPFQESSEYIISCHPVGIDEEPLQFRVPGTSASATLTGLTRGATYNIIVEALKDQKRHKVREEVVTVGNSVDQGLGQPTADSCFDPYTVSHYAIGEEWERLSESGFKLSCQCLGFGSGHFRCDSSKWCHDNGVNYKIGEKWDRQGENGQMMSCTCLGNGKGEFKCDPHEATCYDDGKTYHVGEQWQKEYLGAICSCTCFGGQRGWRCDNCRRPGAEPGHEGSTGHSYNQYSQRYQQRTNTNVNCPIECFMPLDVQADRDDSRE

CHO-B2 cells (ITS) attached on FN/TN substratum, 20 h (% of cells attached on fibronectin) [1]: 31.5
CHO-B2α27 cells (ITS) attached on FN/TN substratum, 20 h (% of cells attached on fibronectin) [1]: 45.1
CHO-K1 cells (ITS) attached on FN/TN substratum, 20 h (% of cells attached on fibronectin) [1]: 37.9
MDA MB 435 cells (insulin) attached on FN/TN substratum, 20 h (% of cells attached on fibronectin) [1]: 62.2
MDA MB 435 cells attached on FN/TN substratum, 1 h (% of cells attached on fibronectin) [1]: 24.5
MDA-MB435 cell number on fibronectin/tenascin-C against fibronectin, 51 h [1]: 24 % more cells
MDA-MB435 cell number on fibronectin/tenascin-C against fibronectin, 75 h [1]: 33 % more cells
T98G cells (PDGF-BB) attached on FN/TN substratum, 20 h (% of cells attached on fibronectin) [1]: 50.4
T98G cells attached on FN/TN substratum, 1 h (% of cells attached on fibronectin) [1]: 31.9
T98G cells partially spread on mixed fibronectin/tenascin-C substratum after 20 h [1]: 45%
DNA replication (3H-thymidine incorporation) of CHO-B2 cells on FN/TN [1, 3]: 2.6
DNA replication (3H-thymidine incorporation) of CHO-B2α27 cells on FN/TN [1, 3]: 2.5
DNA replication (3H-thymidine incorporation) of CHO-K1 cells on FN/TN [1, 3]: 2.3
DNA replication (3H-thymidine incorporation) of MDA MB 435 cells on FN/TN [1, 3]: 1.8
DNA replication (3H-thymidine incorporation) of T98G cells on FN/TN [1, 3]: 3
Molecule: Full length chicken tenascin-C TN260 (from UniProt P10039 34-1808)

attachment of syndecan-4 overexpressing T98G:S4 cells on fibronectin/tenascin-C substratum [1]: 64.7%
Molecule: Syndecan-4 overexpressed on T98G glioblastoma cells (receptor)

binding result [2]: no binding
B1: Recombinant 13th fibronectin type III repeat (FNIII13) (other)
chain: NVSPPRRARVTDATETTITISWRTKTETITGFQVDAVPANGQTPIQRTIKPDVRSYTITGLQPGTDYKIYLYTLNDNARSSPVVIDAST
notes: Obtained as in Bloom et al 1999; also called GST-tagged FNIII13; not shown: GST tag and His tag (pulled down with glutathione Sepharose, detected with anti-GST and anti-His, isolated on Ni-NTA)
